According to publication PMC9329571, “Regulation of TIA-1 Condensates: Zn2+ and RGG Motifs Promote Nucleic Acid Driven LLPS and Inhibit Irreversible Aggregation”:

B1: TIA-1 RRM2,3 (amino acids 93-274), wild type [not stated] / itself (parent)
chain: NHFHVFVGDLSPEITTEDIKAAFAPFGRISDARVVKDMATGKSKGYGFVSFFNKWDAENAIQQMGGQWLGGRQIRTNWATRKPPAPKSTYESNTKQLSYDEVVNQSSPSNCTVYCGGVTSGLTEQLMRQTFSPFGQIMEIRVFPDKGYSFVRFNSHESAAHAIVSVNGTTIEGHVVKCYWGK

Variants of: B1
Experiment: turbidity (A385 nm)
Details: with itself; TIA-1:ZnCl2 ratio 1:8; 20 µM protein; 20 mM HEPES, 50 mM NaCl, 1 mM TCEP, pH 6.9, 25°C, within 30 min incubation under shaking; read off a plot

| Variant | response [A.U.] |
| --- | --- |
| NAFAVFVGDLSPEITTEDIKAAFAPFGRISDARVVKDMATGKSKGYGFVSFFNKWDAENAIQQMGGQWLGGRQIRTNWATRKPPAPKSTYESNTKQLSYDEVVNQSSPSNCTVYCGGVTSGLTEQLMRQTFSPFGQIMEIRVFPDKGYSFVRFNSHESAAHAIVSVNGTTIEGHVVKCYWGK | 0.056 |
| NHFAVFVGDLSPEITTEDIKAAFAPFGRISDARVVKDMATGKSKGYGFVSFFNKWDAENAIQQMGGQWLGGRQIRTNWATRKPPAPKSTYESNTKQLSYDEVVNQSSPSNCTVYCGGVTSGLTEQLMRQTFSPFGQIMEIRVFPDKGYSFVRFNSHESAAHAIVSVNGTTIEGHVVKCYWGK | 0.072 |
| NAFHVFVGDLSPEITTEDIKAAFAPFGRISDARVVKDMATGKSKGYGFVSFFNKWDAENAIQQMGGQWLGGRQIRTNWATRKPPAPKSTYESNTKQLSYDEVVNQSSPSNCTVYCGGVTSGLTEQLMRQTFSPFGQIMEIRVFPDKGYSFVRFNSHESAAHAIVSVNGTTIEGHVVKCYWGK | 0.058 |
